Assay results taken from patent publication US12624112 (MABWELL SHANGHAI BIOSCIENCE, dated 2026).

T1: Human ST2-his (human, UniProt Q01638-2 19-328, limits assumed)
T1 construct: Expressed in CHO-K1; The printed range starts at Met1; also called human ST2 fused with a 6-histidine tag at the C-terminus
T1 sequence: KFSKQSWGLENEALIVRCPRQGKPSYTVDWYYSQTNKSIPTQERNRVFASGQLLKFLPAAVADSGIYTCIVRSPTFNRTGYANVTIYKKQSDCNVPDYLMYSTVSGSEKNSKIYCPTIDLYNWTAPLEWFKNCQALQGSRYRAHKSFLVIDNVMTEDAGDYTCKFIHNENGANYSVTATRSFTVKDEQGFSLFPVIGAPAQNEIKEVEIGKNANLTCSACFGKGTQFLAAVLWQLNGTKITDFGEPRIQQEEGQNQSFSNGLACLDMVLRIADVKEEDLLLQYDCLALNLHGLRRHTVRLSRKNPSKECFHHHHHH

T2: ST2 on the effector cells (KU812, KU812/NF-κB-1#, HUVEC, HMC-1) (human, UniProt Q01638 19-556)
T2 sequence (looked up): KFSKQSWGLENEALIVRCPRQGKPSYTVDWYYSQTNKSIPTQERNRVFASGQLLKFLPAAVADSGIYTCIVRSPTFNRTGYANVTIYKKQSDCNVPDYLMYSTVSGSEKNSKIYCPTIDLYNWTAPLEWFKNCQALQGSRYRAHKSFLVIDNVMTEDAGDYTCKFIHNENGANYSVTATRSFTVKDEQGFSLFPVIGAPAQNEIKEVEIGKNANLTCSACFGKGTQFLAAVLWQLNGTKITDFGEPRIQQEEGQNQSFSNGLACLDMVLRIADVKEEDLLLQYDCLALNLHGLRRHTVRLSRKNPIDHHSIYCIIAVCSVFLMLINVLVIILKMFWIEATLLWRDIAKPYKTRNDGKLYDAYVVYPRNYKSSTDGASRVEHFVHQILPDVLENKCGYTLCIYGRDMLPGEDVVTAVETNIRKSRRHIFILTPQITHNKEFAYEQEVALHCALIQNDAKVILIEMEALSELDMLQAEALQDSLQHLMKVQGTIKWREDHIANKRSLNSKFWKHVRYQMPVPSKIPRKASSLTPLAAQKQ


Tests used:
[1] = target: Human ST2-fc (human) (UniProt Q01638); assay: competition ELISA, coated ST2-fc, competitor IL33-his
[2] = target: T1, Human ST2-his; assay: SPR Biacore X100, antibody captured on protein A chip, human ST2-his injected, pH 7.4
Description: The experiment on the interaction between the anti-human ST2 antibodies and human ST2-his was performed using Biacore X100.
Each anti-human ST2 antibody was diluted to 2 µg/mL and captured on the surface of a protein A chip for a capture time of 60 s. Following the antibody capture, a solution of human ST2-his (2-fold gradient dilution from a starting concentration of 20 nM, to obtain 6 concentrations in total) was injected. Association was monitored for 180 s and dissociation was monitored for 700 s, and the sensor surface was regenerated by injecting a solution of glycine at pH 2.0. Kinetic data were analyzed using a simple 1:1 binding model.

[3] = target: T2, ST2 on the effector cells (KU812, …); assay: cell-based or functional assay
[4] = target: T2, ST2 on the effector cells (KU812, …); assay: cell-based or functional assay; remark: listed apart in the source

Row | Binder | IC50 [1] | Maximum inhibition rate [1] | Relative activity compared with CNTO7160 [1] | further results
1 | 5886-156-H1L1 (antibody, human IgG4 S228P, kappa, V domains shown, Humanized antibody) VH: QVQLQESGPGLVKPSQTLSLTCTVSGYSITSDYAWNWIRQPPGKGLEWIGYIDYSGSTTYNPSLKSRVTISRDTSKNQFSLKLSSVTAADTAVYYCASTVIDSMDYWGQGTLVTVSS VL: DIVLTQSPASLAVSPGQRATITCRASKSVSTSGHSYMHWYQQKPGQPPKLLIYLASNLESGVPARFSGSGSGTDFTLTINPVEANDAANYYCQHSREFPFTFGQGTKVEIKR | 1 µg/mL | 88% | 125% | Kd [2]: 0.261 nM; koff [2]: 0.000377 s⁻¹; kon [2]: 1.45e+06 M⁻¹ s⁻¹; IC50, inhibition of KU812-IL5 production promoted by IL-33 (human IL33-his) [3]: 0.0289 µg/mL; Maximum inhibition rate, KU812-IL5 production by IL-33 [3]: 95%; Relative activity compared with CNTO7160, KU812-IL5 production by IL-33 [3]: 222%
2 | 5887-41-H1L1 (antibody, human IgG4 S228P, kappa, V domains shown) VH: QVQLQESGPGLVKPSQTLSLTCTVSGYSITSDYAWDWIRQPPGKGLEWIGYIRYSGDTYYNPSLKSRVTISRDTSKNQFSLKLSSVTAADTAVYYCATTMMDTMDYWGQGTLVTVSS VL: DIVLTQSPASLAVSPGQRATITCRASKSVSTSGNSYMHWYQQKPGQPPKLLIYLASNLESGVPARFSGSGSGTDFTLTINPVEANDAANYYCQHSREFPLTFGQGTKLEIKR | 2.23 µg/mL | 92.4% | 56.2% | –
3 | 5887-537-H1L0 (antibody, human IgG4 S228P, kappa, V domains shown) VH: QVTLKESGPTLVKPTQTLTLTCTFSGFSLSTSGMGVGWIRQPPGKALEWLAHIWWDDVKQYNPALKSRLTITKDTSKSQVVLTMTNMDPVDTATYYCARIGGDYDYFDFWGQGTTVTVSS VL: DIVLTQSPASLAVSPGQRATITCRASESVEYSGTSLMQWYQQKPGQPPKLLIYVASNVESGVPARFSGSGSGTDFTLTINPVEANDTANYYCQQSRKVPWTFGQGTKLEIKR | 0.0882 µg/mL | 88.3% | 1210% | –
4 | 5888-116-H1L1 (antibody, human IgG4 S228P, kappa, V domains shown) VH: QVQLVQSGAEVKKPGASVKVSCKASGYTFTDSEMYWVRQAPGQGLEWMGAIDPETGDTAFNQKFKGRVTMTADKSTSTAYMELSSLRSEDTAVYYCTRAFDNDNDDGFAYWGQGTMVTVSS VL: DIQMTQSPSSLSASVGDRVTITCSASSSVNYMHWYQQKPGKAPKRLIYDTSKLASGVPSRFSGSGSGTDYTFTISSLQPEDAATYYCQQWSSNPLTFGQGTKLEIKR | 0.486 µg/mL | 94.9% | 219% | –
5 | 5888-116-H3L1 (antibody, human IgG4 S228P, kappa, V domains shown) VH: QVQLVQSGAEVKKPGASVKVSCKASGYTFTDSEMYWVRQAPGQGLEWMGAIDPETGDTAFNQKFKGRVTMTADKSTSTAYMELSSLRSEDTAVYYCTRAFDNDNDDAFAYWGQGTMVTVSS VL: DIQMTQSPSSLSASVGDRVTITCSASSSVNYMHWYQQKPGKAPKRLIYDTSKLASGVPSRFSGSGSGTDYTFTISSLQPEDAATYYCQQWSSNPLTFGQGTKLEIKR | 0.611 µg/mL | 90.7% | 187% | –
6 | 5888-153-H0L0 (antibody, human IgG4 S228P, kappa, V domains shown) VH: QVQLVQSGAEVKKPGASVKVSCKASGYTFTDYELHWVRQAPGQGLEWMGTIDPETGDTVYNQKFKARVTMTRDTSTSTVYMELSSLRSEDTAVYYCARAFYNDYDDGFAYWGQGTLVTVSS VL: EIVLTQSPATLSLSPGERATLSCSVSSSVSYMHWYQQKPGQAPRLLIYDTSKLASGIPARFSGSGSGTDFTLTISSLEPEDFAVYYCQQWNSSPLTFGGGTKVEIKR | 2.57 µg/mL | 92.9% | 44.3% | –
7 | 5888-153-H0L2 (antibody, human IgG4 S228P, kappa, V domains shown) VH: QVQLVQSGAEVKKPGASVKVSCKASGYTFTDYELHWVRQAPGQGLEWMGTIDPETGDTVYNQKFKARVTMTRDTSTSTVYMELSSLRSEDTAVYYCARAFYNDYDDGFAYWGQGTLVTVSS VL: EIVMTQSPATLSLSPGERATLSCSVSSSVSYMHWYQQKPGQAPRRLIYDTSKLASGIPARFSGSGSGTDYTLTISSLEPEDAAVYYCQQWNTSPLTFGGGTKVEIKR | 0.474 µg/mL | 93.5% | 240% | –
8 | 5888-153-H1L0 (antibody, human IgG4 S228P, kappa, V domains shown) VH: QVQLVQSGAEVKKPGASVKVSCKASGYTFTDYELHWVRQAPGQGLEWMGTIDPETGDTVYNQKFKARVTMTADKSTSTAYMELSSLRSEDTAVYYCTRAFYNDYDDGFAYWGQGTLVTVSS VL: EIVLTQSPATLSLSPGERATLSCSVSSSVSYMHWYQQKPGQAPRLLIYDTSKLASGIPARFSGSGSGTDFTLTISSLEPEDFAVYYCQQWNSSPLTFGGGTKVEIKR | 1.32 µg/mL | 92.5% | 86.2% | –
9 | 5888-153-H1L1 (antibody, human IgG4 S228P, kappa, V domains shown) VH: QVQLVQSGAEVKKPGASVKVSCKASGYTFTDYELHWVRQAPGQGLEWMGTIDPETGDTVYNQKFKARVTMTADKSTSTAYMELSSLRSEDTAVYYCTRAFYNDYDDGFAYWGQGTLVTVSS VL: EIVMTQSPATLSLSPGERATLSCSVSSSVSYMHWYQQKPGQAPRRLIYDTSKLASGIPARFSGSGSGTDYTLTISSLEPEDAAVYYCQQWNSSPLTFGGGTKVEIKR | 0.624 µg/mL | 93.8% | 183% | IC50, inhibition of activation of KU812-NF-κB reporter gene by IL33 [4]: 12.4 ng/mL; Maximum inhibition rate, KU812-NF-κB reporter gene [4]: 91.4%; Relative activity compared with CNTO7160, KU812-NF-κB reporter gene [4]: 1620%
10 | 5888-153-H1L2 (antibody, human IgG4 S228P, kappa, V domains shown) VH: QVQLVQSGAEVKKPGASVKVSCKASGYTFTDYELHWVRQAPGQGLEWMGTIDPETGDTVYNQKFKARVTMTADKSTSTAYMELSSLRSEDTAVYYCTRAFYNDYDDGFAYWGQGTLVTVSS VL: EIVMTQSPATLSLSPGERATLSCSVSSSVSYMHWYQQKPGQAPRRLIYDTSKLASGIPARFSGSGSGTDYTLTISSLEPEDAAVYYCQQWNTSPLTFGGGTKVEIKR | 0.852 µg/mL | 94% | 134% | IC50, inhibition of activation of KU812-NF-κB reporter gene by IL33 [4]: 44.1 ng/mL; Maximum inhibition rate, KU812-NF-κB reporter gene [4]: 85%; Relative activity compared with CNTO7160, KU812-NF-κB reporter gene [4]: 454%
11 | 5888-357-H1L1 (antibody, human IgG4 S228P, kappa, V domains shown) VH: QVQLVQSGAEVKKPGASVKVSCKASGYRFTDSEMHWVRQAPGQGLEWMGTIDPETGGTVYNQKFKGRVTMTADRSTSTVYMELSSLRSEDTAVYYCTRAFYNDFDDGFAYWGQGTMVTVSS VL: EIVMTQSPATLSLSPGERATLSCSASTSVSYMHWYQQKPGQAPRRLIYDTSKLASGIPARFSGSGSGTDYTLTISSLEPEDAAVYYCQQWSSNPLTFGGGTKVEIKR | 0.49 µg/mL | 93.2% | 257% | –
12 | 5888-379-H0L0 (antibody, human IgG4 S228P, kappa, V domains shown) VH: QVQLVQSGAEVKKPGASVKVSCKASGYTFINYGMNWVRQAPGQRLEWMGWINTYIGEPTYGDNFKGRVTITRDTSASTAYMELSSLRSEDTAVYYCAREGDGFAYWGQGTLVTVSS VL: DIQMTQSPSSLSASVGDRVTITCKSSQSLLYSGNQNNYLAWYQQKPGKVPKLLIYGASTRESGVPSRFSGSGSGTDFTLTISSLQPEDVATYYCQNDHSYPYTFGGGTKVEIKR | 0.488 µg/mL | 90.5% | 180% | –
13 | 5888-379-H1L1 (antibody, human IgG4 S228P, kappa, V domains shown) VH: QVQLVQSGAEVKKPGASVKVSCKASGYTFINYGMNWVRQAPGQRLEWMGWINTYIGEPTYGDNFKGRVTITRDTSASTAYMELSSLRSEDTAVYYCAREGEGFAYWGQGTLVTVSS VL: DIQMTQSPSSLSASVGDRVTITCKSSQSLLYSGNQNNYLAWYQQKPGKVPKLLIYGASTRESGVPSRFSGSGSGTDFTLTISSLQPEDLATYYCQNDHSYPYTFGGGTKVEIKR | 0.317 µg/mL | 89.5% | 276% | –
